Results as given in paper PMC6821130.
Several values for one entry are separate records, joined by “and”; a condition that tells them apart may be missing. Equal values may be shown once.

Columns and labels:
[1] = molecular target: 6xHis-PilU^K134A (Vibrio cholerae); test: negative-stain electron microscopy
[2] = molecular target: 6xHis-PilT^K136A (Vibrio cholerae); test: negative-stain electron microscopy
[3] = molecular target: PilC (full length, fused to the T18 or T25 fragment of adenylate cyclase) (UniProt Q9X4G9); test: BACTH Miller assay; details: read off a plot
Sequence of UniProt Q9X4G9 (Q9X4G9 whole entry, the tested form may be a part): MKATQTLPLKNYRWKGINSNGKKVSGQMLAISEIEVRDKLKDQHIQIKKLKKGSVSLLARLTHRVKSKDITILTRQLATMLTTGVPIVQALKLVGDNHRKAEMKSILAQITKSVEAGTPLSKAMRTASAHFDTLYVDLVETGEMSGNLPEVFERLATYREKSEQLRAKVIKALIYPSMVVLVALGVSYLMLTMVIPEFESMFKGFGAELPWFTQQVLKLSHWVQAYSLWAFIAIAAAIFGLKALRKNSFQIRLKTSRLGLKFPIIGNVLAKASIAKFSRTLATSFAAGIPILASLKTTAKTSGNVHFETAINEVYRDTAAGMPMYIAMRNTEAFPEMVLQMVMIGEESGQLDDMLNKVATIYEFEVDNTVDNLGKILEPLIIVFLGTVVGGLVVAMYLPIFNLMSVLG

[4] = molecular target: PilU (full length, fused to the T18 or T25 fragment of adenylate cyclase); test: BACTH Miller assay; details: read off a plot
[5] = molecular target: PilT (full length, fused to the T18 or T25 fragment of adenylate cyclase); test: BACTH Miller assay; details: read off a plot
[6] = molecular target: PilU^K134A (full length, fused to the T18 or T25 fragment of adenylate cyclase); test: BACTH Miller assay; details: parent: est. 180; read off a plot
[7] = molecular target: PilT^K136A (full length, fused to the T18 or T25 fragment of adenylate cyclase); test: BACTH Miller assay; details: read off a plot
[8] = molecular target: 6XHis-PilU (Vibrio cholerae); test: negative-stain electron microscopy
[9] = molecular target: 6XHis-PilT (Vibrio cholerae); test: negative-stain electron microscopy

Substance: 6xHis-PilU^K134A (enzyme)
- stoichiometry N [1]: 6

Substance: 6xHis-PilT^K136A (enzyme)
- stoichiometry N [2]: 6

Substance: PilU (full length, fused to the T18 or T25 fragment of adenylate cyclase) K134A
- response ([3]; parent: est. 55): 75 Miller Units
- response ([3]; parent: est. 100): 110 Miller Units
- response ([4]; parent: est. 180): 180 Miller Units and 220 Miller Units
- response ([5]; parent: est. 65): 85 Miller Units
- response ([5]; parent: est. 110): 78 Miller Units
- response [6]: 140 Miller Units

Substance: PilT (full length, fused to the T18 or T25 fragment of adenylate cyclase) K136A
- response ([3]; parent: est. 90): 80 Miller Units
- response ([3]; parent: est. 120): 110 Miller Units
- response ([4]; parent: est. 65): 8.5 Miller Units
- response ([4]; parent: est. 110): 78 Miller Units
- response ([7]; parent: est. 170): 85 Miller Units
- response ([5]; parent: est. 170): 170 Miller Units and 160 Miller Units

Substance: 6XHis-PilU (enzyme)
- stoichiometry N [8]: 6

Substance: m2; m1 PilU:K134A; PilT:K136A
- response ([7]; parent: est. 65): 11 Miller Units
- response ([7]; parent: est. 110): 48 Miller Units

Substance: 6XHis-PilT (enzyme)
- stoichiometry N [9]: 6
